# From patent publication US20130129707A1, “ANTIMICROBIAL ACTIVITY ENHANCING AGENT” (priority 2010, published 2013)
# B1: LF: bovine lactoferrin (Morinaga Milk Industry) diluted with deionized water; 2 mg/mL in Samples 1 and 11 (protein, UniProt P24627 20-708, looked up)
# Lactotransferrin: APRKNVRWCTISQPEWFKCRRWQWRMKKLGAPSITCVRRAFALECIRAIAEKKADAVTLDGGMVFEAGRDPYKLRPVAAEIYGTKESPQTHYYAVAVVKKGSNFQLDQLQGRKSCHTGLGRSAGWIIPMGILRPYLSWTESLEPLQGAVAKFFSASCVPCIDRQAYPNLCQLCKGEGENQCACSSREPYFGYSGAFKCLQDGAGDVAFVKETTVFENLPEKADRDQYELLCLNNSRAPVDAFKECHLAQVPSHAVVARSVDGKEDLIWKLLSKAQEKFGKNKSRSFQLFGSPPGQRDLLFKDSALGFLRIPSKVDSALYLGSRYLTTLKNLRETAEEVKARYTRVVWCAVGPEEQKKCQQWSQQSGQNVTCATASTTDDCIVLVLKGEADALNLDGGYIYTAGKCGLVPVLAENRKSSKHSSLDCVLRPTEGYLAVAVVKKANEGLTWNSLKDKKSCHTAVDRTAGWNIPMGLIVNQTGSCAFDEFFSQSCAPGADPKSRLCALCAGDDQGLDKCVPNSKEKYYGYTGAFRCLAEDVGDVAFVKNDTVWENTNGESTADWAKNLNREDFRLLCLDGTRKPVTEAQSCHLAVAPNHAVVSRSDRAAHVKQVLLHQQALFGKNGKNCPDKFCLFKSETKNLLFNDNTECLAKLGGRPTYEEYLGTEYVTAIANLKKCSTSPLLEACAFLTR
# B2: Sample 14: Angiogenin-1 (32 μg/mL), bovine, about 15 kDa, separated by gel filtration HPLC in Example 5 (SEQ ID NO: 4) (protein, listed as Bos taurus)
# chain: AQDDYRYIHFLTQHYDAKPKGRNDEYCFNMMKNRRLTRPCKDRNTFIHGNKNDIKAICEDRNGQPYRGDLRISKSEFQITICKHKGGSSRPPCRYGATEDSRVIVVGCENGLPVHFDESFITPRH
# B3: angiogenin-2: bovine angiogenin-2, about 17 kDa component of peak α in Example 5 (SEQ ID NO: 7) (protein, listed as Bos taurus)
# chain: QNDAYRGFLRKHYDPSPTGHDDRYCNTMMERRNMTRPCKDTNTFIHGNSDDIRAVCDDRNGEPYRNGLRRSRSPFQVTTCRHRGGSPRPPCRYRAFRANRVIVIRCRDGFPIHLEENFIPPRP
# Columns and labels:
# Format in all cases: cell-based
# [1] = test system: Escherichia coli K-12 strain (NBRC 3301); assay: Antimicrobial activity enhancement test (colony count, CFU); conditions: culture 17 hours
# Procedure: In the antimicrobial activity enhancement test, antimicrobial activity of a sample obtained by mixing the antimicrobial activity enhancing agent of the present invention with lactoferrin or a lactoferrin hydrolysate was measured. As a control, antimicrobial activity of a sample containing only lactoferrin or a lactoferrin hydrolysate was also measured.
# By using 1% Bacto peptone medium, Escherichia coli K-12 strain was inoculated into the medium contained in a polystyrene tube with a 5 ml capacity, and precultured in an incubator at 37° C. for 6 hours to obtain a cell suspension for the test. The precultured Escherichia coli was added to a 96-well plate at a cell density of 10^6 cells/mL together with each of the aforementioned samples, and cultured at 37° C. for a predetermined time. After the culture for the predetermined time, the culture medium containing Escherichia coli was serially diluted with 0.85% physiological saline, and plated on an agar medium, and culture was performed at 37° C. for a predetermined time. Then, number of colonies (colony forming units:CFU) was measured.
# Antimicrobial activity of each sample was evaluated on the basis of the value of CFU. Degree of enhancement of the antimicrobial activity was calculated by comparison of the numbers of Escherichia coli (CFU) that remained after the test. For example, if CFU of Sample 1 is 100, and CFU of Sample 2 is 10 after the test, the antimicrobial activity of Sample 2 can be determined to be 10 times that of Sample 1. […]
# By using 1% Bacto peptone medium (Becton Dickinson), the Escherichia coli K-12 strain (NBRC 3301) was inoculated to the medium contained in a polystyrene tube with a 5 ml capacity at a density of 10^6 CFU/mL, and precultured in an incubator at 37° C. for 6 hours to obtain a cell suspension for the test.
# The cell suspension for the test was added to a 96-well plate at a cell density of 10^6 CFU/mL together with each of the aforementioned samples, and culture was performed at 37° C. for 17 hours.
# After the culture for 17 hours, the culture medium containing Escherichia coli was serially diluted with 0.85% physiological saline, and plated on an agar medium (Rapid Media RM-SPC, Morinaga Milk Industry), and then culture was performed at 37° C. for 16 hours. Then, number of the formed colonies (CFU: Colony Forming Unit) was measured to evaluate the antimicrobial activity of each sample.
# [2] = test system: Cronobacter sakazaki ATCC 12868; assay: Minimum inhibitory concentration (MIC), absorbance at 630 nm; conditions: Test Example 6; MIC as lactoferrin concentration; 17 hours, 37° C.
# Procedure: (§1) By using 1% Bacto peptone medium (Becton Dickinson), each of Escherichia coli 0111, Cronobacter sakazaki ATCC 12868, Salmonella enteritidis IID 604, Klebsiella pneumoniae JCM 1662T, Pseudomonas aeruginosa MMI 603, Staphylococcus aureus JCM 2151 and Staphylococcus epidermidis JCM 2414T was inoculated to the medium contained in a polystyrene tube with a 5 ml capacity at a density of 10^6 cells/mL, and precultured in an incubator at 37° C. for 6 hours to obtain a cell suspension for the test.
# (§2) Each of the cell suspensions for the test was added to a 96-well plate at a cell density of 10^6 cells/mL together with each of the aforementioned samples, and culture was performed at 37° C. for 17 hours.
# (§3) After the culture for 17 hours, absorbance of the medium was measured at 630 nm using a microplate reader (Corona Electric). In addition, each bacterium was cultured only with the medium as a control, besides the culture using Samples 16 to 30.
# (§4) By using 1% Bacto peptone medium (Becton Dickinson), each of Escherichia coli 0111, Cronobacter sakazaki ATCC 12868, Klebsiella pneumoniae JCM 1662T, Pseudomonas aeruginosa MMI 603, and Staphylococcus aureus JCM 2151 was inoculated to the medium contained in a polystyrene tube with a 5 ml capacity at a density of 10^6 cells/mL, and precultured in an incubator at 37° C. for 6 hours to obtain a cell suspension for the test. In a similar manner, by using the PYG medium (1% Bacto peptone, 0.05% yeast extract (Becton Dickinson), 1% glucose (Wako Pure Chemical Industries)), Streptococcus mutans JCM 5705T was inoculated to the medium contained in a polystyrene tube with a 5 ml capacity at a density of 10^6 cells/mL, and precultured in an incubator at 37° C. for 6 hours to obtain a cell suspension for the test. Further, by using the Sabouraud medium (1% Bacto peptone, 2% glucose), Candida albicans TIMM1768 was inoculated to the medium contained in a polystyrene tube with a 5 ml capacity at a density of 10^6 cells/mL, and precultured in an incubator at 37° C. for 6 hours to obtain a cell suspension for the test.
# (§5) After the culture for 17 hours, absorbance of the medium was measured at 630 nm using a microplate reader (Corona Electric). In addition, each bacterium was cultured only with the medium as a control, besides the culture using Samples 31 to 41.
# [3] = test system: Escherichia coli O111; assay: as above; conditions: Test Example 6; MIC as lactoferrin concentration; 17 hours, 37° C.
# Procedure: as §1, §2, §3, §4, §5
# [4] = test system: Klebsiella pneumoniae JCM 1662T; assay: as above; conditions: Test Example 6; MIC as lactoferrin concentration; 17 hours, 37° C.
# Procedure: as §1, §2, §3, §4, §5
# [5] = test system: Pseudomonas aeruginosa MMI 603; assay: as above; conditions: Test Example 6; MIC as lactoferrin concentration; 17 hours, 37° C.
# Procedure: as §1, §2, §3, §4, §5
# [6] = test system: Staphylococcus aureus JCM 2151; assay: as above; conditions: Test Example 6; MIC as lactoferrin concentration; 17 hours, 37° C.
# Procedure: as §1, §2, §3, §4, §5
# [7] = test system: Salmonella enteritidis IID 604; assay: as above; conditions: Test Example 6; MIC as lactoferrin concentration; 17 hours, 37° C.
# Procedure: as §1, §2, §3
# [8] = test system: Staphylococcus epidermidis JCM 2414T; assay: as above; conditions: Test Example 6; MIC as lactoferrin concentration; 17 hours, 37° C.
# Procedure: as §1, §2, §3
# [9] = test system: Candida albicans TIMM1768; assay: as above; conditions: Test Example 6; MIC as lactoferrin concentration; Sabouraud medium; 17 hours, 37° C.
# Procedure: (§6) In a similar manner, by using the PYG medium (1% Bacto peptone, 0.05% yeast extract (Becton Dickinson), 1% glucose (Wako Pure Chemical Industries)), Streptococcus mutans JCM 5705T was inoculated to the medium contained in a polystyrene tube with a 5 ml capacity at a density of 10^6 cells/mL, and precultured in an incubator at 37° C. for 6 hours to obtain a cell suspension for the test. Further, by using the Sabouraud medium (1% Bacto peptone, 2% glucose), Candida albicans TIMM1768 was inoculated to the medium contained in a polystyrene tube with a 5 ml capacity at a density of 10^6 cells/mL, and precultured in an incubator at 37° C. for 6 hours to obtain a cell suspension for the test.
# as §2
# (§7) After the culture for 17 hours, absorbance of the medium was measured at 630 nm using a microplate reader (Corona Electric). In addition, each bacterium was cultured only with the medium as a control, besides the culture using Samples 16 to 30. […]
# (§8) After the culture for 17 hours, absorbance of the medium was measured at 630 nm using a microplate reader (Corona Electric). […]
# [10] = test system: Streptococcus mutans JCM 5705T; assay: as above; conditions: Test Example 6; MIC as lactoferrin concentration; PYG medium; 17 hours, 37° C.
# Procedure: as §6, §2, §7, §8
Molecule,Change of Log10 CFU relative to control ([1]; Test Example 2),Survival rate based on control ([1]; Test Example 2),Change of Log10 CFU relative to control ([1]; Test Example 5),Survival rate based on control ([1]; Test Example 5),MIC [2],MIC [3],MIC [4],MIC [5],MIC [6],MIC [7],MIC [8],MIC [9],MIC [10],antimicrobial activity (in words) ([1]; Test Example 5)
B1,−2.472,0.337%,−2.657,0.220%,8000 µg/mL,2000 µg/mL,8000 µg/mL,8000 µg/mL,500 µg/mL,4000 µg/mL,1000 µg/mL,1000 µg/mL,>8000 µg/mL,–
B2,–,–,0.160,144.654%,–,–,–,–,–,–,–,–,–,do not have antimicrobial activity
B3,–,–,–,–,–,–,–,–,–,–,–,–,–,do not have antimicrobial activity
